In the RNAGym collection of RNA variant scans (doi:10.1073/pnas.2313332121):

B1: TPR t1 (parent)
chain: GACCAAUCUGCCCUCAGAGCUCGAGAACAUCUUCGGAUGCAGAGGAGGCAGGCUUCGGUGGCGCGAUAGCGCCAACGUCCUCAACCUCCAAUGCAUCCCACCACAUGAUGAUGCCUGAAGAGCCUUGGUUUUUUG

Variants of: B1
Experiment: polymerase ribozyme fitness, log enrichment relative to wild type (log ratio); higher = more active; in vitro selection for triplet polymerase activity
Outline: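 Input and output libraries were sequenced on Illumina after a single in vitro selection round, run in triplicate on PCR-built, transcribed mutant libraries of each subunit of a heterodimeric triplet polymerase ribozyme. Selection annealed libraries to a biotinylated primer, the partner subunit and triplets, incubated them frozen at −7 °C, then gel-excised extended constructs for streptavidin-bead capture and RT-PCR. Genotypes with ≥10 input reads and ≥1 read per output were kept. Fitness is the logarithm, taken in base 2, of genotype enrichment divided by wild-type enrichment, using inverse-variance-weighted replicate averages.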

| Variant | polymerase ribozyme fitness (log ratio) |
| --- | --- |
| C12G C62U C89A C94U | -2 |
| C12A G19U C79G | -5.7 |
| C12G A121C | 1.5 |
| C12A C56A C62U A91U G128C | -5.72 |
| C12G A37G | 0.106 |
| C12G A16C C64U | -2.46 |
| C12G C73U C97A | -4.85 |
| C12G G52A G61C C88U G120U | -3.61 |
| C12G U21G A111U | -3.89 |
| C12G C53U C64U U106C | -0.438 |
| C12G U78C | -0.718 |
| C12A U92G G128A | -5.4 |
| C12A G36U G63A | -2.46 |
| C12U A16G C20U A84U U112G G113U | -0.951 |
| C12G C76A A95U C115U | -4.26 |
| C12A G48A | -0.767 |
| C12A C70A C80U | -2.16 |
| C12A G45A C85A | -3.04 |
| C12G A100C | -0.741 |
| C12G C20A G69A C79U C123U | -5.46 |
| C12A C53G U92C | -1.45 |
| C12A G19U G23U G47A G52C G69U G110C | -7.34 |
| C12G C64G C123G | -6.23 |
| C12G G117U | -1.22 |

| Variant | polymerase ribozyme fitness (log ratio) |
| --- | --- |
| C12A G36A G61A U92A C123U | -3.77 |
| C12G U14A C62A C86A C102A G120C U129A | -7.34 |
| C12A G36C G60A | -1.66 |
| C12G C62G C99G C124A | -7.37 |
| C12G C22U G63A U87A | -4.98 |
| C12A G42C G69U C80U | -1.06 |
| C12G C115A | -0.408 |
| C12G C115U | -1.38 |
| C12G U116A | -3.29 |
| C12A G77A | -0.669 |
| C12G G71A | 0.0302 |
| C12G C15A A50C | -2.29 |
| C12A U87A | -0.82 |
| C12A C56U C94G | -2.21 |
| C12A G69U G128C | -1.9 |
| C12A U21A A46C C73A U87G | -0.648 |
| C12A C73A G120C A121U | 2.42 |
| C12G | 0.29 |
| C12U | 0.39 |
| C12A C79A | -1.35 |
| C12U A18U C114A G128A U130A | -3 |
| C12A U109A | -5.14 |
| C12G C13U G19U G44C C73A G93A | -4.75 |
| C12A U92A C97G C123G G128U | -6.73 |

| Variant | polymerase ribozyme fitness (log ratio) |
| --- | --- |
| C12A C102U | -2.56 |
| C12A C34G G120A | -4.45 |
| C12G A29C | -1.57 |
| C12G A29U | -1.54 |
| C12G C70A A75U U112A G113U G120C U133G | -2.57 |
| C12A G48U G71C | -1.56 |
| C12G G42A G57C C72U U125C | -4.98 |
| C12G C53U G60C C89U C102U C104U | -2.28 |
| C12G U21A C31U G60C U87C A95G G120U U133A | -4.31 |
| C12A C53U U106G G113C G127C | -5.83 |
| C12A C70U U78G | -1.07 |
| C12A C56U | 0.0114 |
| C12A C56A | -1.02 |
| C12A G61U C98U U125A | -1.77 |
| C12G A18C C88U | -2.16 |
| C12G C34A A41C G71C C79A | -6.92 |
| C12U A16G C28U A46C G120C | -1.6 |
| C12G C98U | -0.616 |
| C12A C56G A84U | -1.85 |
| C12A C89A | -1.87 |
| C12G C64U C73U U131G | -0.0751 |
| C12A C88U | -0.873 |
| C12A G45U | -1.63 |
| C12U A24G G36A G63A | -2.54 |

| Variant | polymerase ribozyme fitness (log ratio) |
| --- | --- |
| C12G G17C U87G C97A C123G | -6.84 |
| C12G G63A | -0.827 |
| C12G G63C | -1.09 |
| C12G A43U G45C C73A U78A U92G | -2.67 |
| C12G C101G G110U | -5.05 |
| C12A G61U | -0.581 |
| C12A G61A | -0.687 |
| C12A G42A C70U U96A G135C | -4.85 |
| C12A C86U | -0.885 |
| C12G A46G C53G A95G A119G | 0.414 |
| C12A U106A | -0.467 |
| C12A C115U | -1.21 |
| C12G C13A G36A G47C C86U C114G | -6.13 |
| C12G G61U | 0.811 |
| C12G G61A | 0.388 |
| C12G G51U | -2.93 |
| C12G C22A | -4.18 |
| C12G C15G G51U C73A G117U | -2.07 |
| C12G G52U C53G G60U | -0.409 |
| C12A G17A G61U | -4.75 |
| C12G U132A | -0.729 |
| C12A U54C C115U | -2.47 |
| C12G A18U G45U G63U C88A | -5.09 |
| C12A U54A U92G U132C | -3.79 |

| Variant | polymerase ribozyme fitness (log ratio) |
| --- | --- |
| C12G A43U C70G C124G | -4.85 |
| C12A G69A A90U U109A C115A | -7.7 |
| C12A U14G U81C G93C A119U G120C | -0.255 |
| C12G U38G G44U U78A | -1.53 |
| C12G A18G G44C G71C A84U | -6.08 |
| C12G C20U | -0.703 |
| C12G A16U C72U G93U U112A | -3.35 |
| C12G C49A G77C | -0.254 |
| C12A U14G C72U U81C G93C A119U G120C | -0.415 |
| C12A G47C C70U G120C | -1.04 |
| C12G G110C | -3.59 |
| C12G G110U | -1.12 |
| C12G G110A | -0.401 |
| C12A C56A C123U U131G | 0.231 |
| C12G C20A A26U | -5.8 |
| C12G U21C A29U G61A C123U U131A | -2.39 |
| C12G C28U G71U C124U | -0.951 |
| C12G C53A G57U G60U C94U G107U | -6.32 |
| C12A G45U G58C C98U C101A | -3.82 |
| C12G G69C C82U C98U A119G | -0.598 |
| C12G C49G C72A C89U C102A | -1.91 |
| C12A C49U C70G | -4.56 |
| C12G U55C A90C | -1.45 |
| C12G U30C | -2.82 |

| Variant | polymerase ribozyme fitness (log ratio) |
| --- | --- |
| C12A G71U C89U C101U C123U G128C | -1.52 |
| C12A C49U G69C C80G C115G | -8.79 |
| C12U A18C C70U A75U U125G | -5.05 |
| C12G G45U | -0.996 |
| C12G C62G A75G U87C | -3.99 |
| C12G A43U G61A A84U | -1.52 |
| C12G C62G | -1.6 |
| C12G U38C G69U C123A | 1.35 |
| C12G G135U | -0.927 |
| C12A G61U C79A | -1.28 |
| C12G C40U U55A C82G | -0.877 |
| C12G A43G C79A U112A G117C | -4.33 |
| C12G A74C C89A | -1.6 |
| C12G A46C | -1.55 |
| C12A U96A | -1.84 |
| C12G G47A G113A C124U U129G U133A | -4.6 |
| C12A G39U G117A | -2.74 |
| C12A G19U C40G C89U C102A U112C C114A | -2.47 |
| C12G G122A | -0.383 |
| C12G U78C A111U | -3.23 |
| C12G C40G C62U | -0.941 |
| C12G C62U A105C | -2.46 |
| C12A C72U C102U C114G | -5.72 |
| C12A G51A C62U U96A | -5.39 |

| Variant | polymerase ribozyme fitness (log ratio) |
| --- | --- |
| C12G C49G | -0.51 |
| C12A C82G | -1.17 |
| C12A C124G G127U | 1.3 |
| C12A C53G | -1.23 |
| C12A G36C U55G C72U U96G | -4.76 |
| C12G G71U G77A | -0.248 |
| C12A G47A C72G G93A G135U | -4.39 |
| C12G A37U G61C | -1.78 |
| C12G G48A | -0.668 |
| C12G G44A G63A U112G G122U G135U | -2.91 |
| C12A C123U G128C | 0.474 |
| C12G C56U U78A A90C C114U | -2.46 |
| C12A C53A A108G | -2.7 |
| C12A C114U | -1.85 |
| C12A C114A | -1.3 |
| C12A G47C C49A U125A | -2.88 |
| C12A C124G | 1.95 |
| C12A C124A | 1.83 |
| C12A C124U | 0.853 |
| C12A G48U C102A A118G | -4.24 |
| C12U A24G G36A | -1.4 |
| C12G G47U C94G G128A | -4.93 |
| C12G C13U C20A C40A C56U C114U C115A | -3.7 |
